Assay results from patent US6150090.

Molecular target: IgNF-A (NF-A1), ubiquitous octamer-binding protein (Homo sapiens) (UniProt P14859)
Test: EMSA
Conditions: affinity over heterologous plasmid DNA; poly(dI-dC) carrier; DNase I footprint -72 to -52

IgNF-A (NF-A1), ubiquitous octamer-binding protein (Homo sapiens), sequence (P14859 whole entry): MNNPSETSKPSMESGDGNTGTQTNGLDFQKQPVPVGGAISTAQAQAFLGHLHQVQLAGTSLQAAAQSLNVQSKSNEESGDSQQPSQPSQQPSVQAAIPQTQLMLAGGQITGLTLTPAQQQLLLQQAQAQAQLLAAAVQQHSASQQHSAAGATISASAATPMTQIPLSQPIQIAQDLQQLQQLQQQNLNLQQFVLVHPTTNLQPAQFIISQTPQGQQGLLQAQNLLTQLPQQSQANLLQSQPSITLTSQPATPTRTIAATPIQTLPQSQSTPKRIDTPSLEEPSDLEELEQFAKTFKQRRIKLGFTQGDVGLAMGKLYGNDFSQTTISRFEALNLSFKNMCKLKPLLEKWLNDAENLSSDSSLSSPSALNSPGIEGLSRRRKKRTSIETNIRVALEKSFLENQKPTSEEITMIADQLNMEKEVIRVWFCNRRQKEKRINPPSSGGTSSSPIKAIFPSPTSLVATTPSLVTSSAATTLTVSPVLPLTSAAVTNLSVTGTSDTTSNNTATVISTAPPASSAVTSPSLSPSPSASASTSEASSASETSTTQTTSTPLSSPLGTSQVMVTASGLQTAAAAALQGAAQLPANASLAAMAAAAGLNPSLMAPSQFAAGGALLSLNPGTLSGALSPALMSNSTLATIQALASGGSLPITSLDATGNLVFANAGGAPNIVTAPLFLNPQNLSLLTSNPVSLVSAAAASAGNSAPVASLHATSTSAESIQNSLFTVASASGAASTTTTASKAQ

In the case of “MOPC41 V kappa promoter PvuII-SfaNI fragment”, the binding signal is reported as over 10000 fold.
